B1: Grp1_(14-390), constitutively active construct lacking the polybasic motif (domain or fragment, mouse, UniProt O08967 14-390, looked up)
chain: EDLSLEEREELLDIRRRKKELIDDIERLKYEIAEVMTEIDNLTSVEESKTTQRNKQIAMGRKKFNMDPKKGIQFLIENDLLQSSPEDVAQFLYKGEGLNKTVIGDYLGERDDFNIKVLQAFVELHEFADLNLVQALRQFLWSFRLPGEAQKIDRMMEAFASRYCLCNPGVFQSTDTCYVLSFAIIMLNTSLHNHNVRDKPTAERFITMNRGINEGGDLPEELLRNLYESIKNEPFKIPEDDGNDLTHTFFNPDREGWLLKLGGRVKTWKRRWFILTDNCLYYFEYTTDKEPRGIIPLENLSIREVEDPRKPNCFELYNPSHKGQVIKACKTEADGRVVEGNHVVYRISAPSPEEKEEWMKSIKASISRDPFYDMLAT
notes: Grp1 (cytohesin-3), mouse, diglycine splice variant, residues 14-390 (lacks the polybasic region); also called fully active Grp1 dimer; source: E. coli BL21(DE3), purified (Ni-NTA, HiTrap Q, Superdex-200)
B2: Grp1_(14-399), diglycine variant, autoinhibited, in complex with the head group of PIP3 (IP4) (domain or fragment, mouse, UniProt O08967 14-399, looked up)
chain: EDLSLEEREELLDIRRRKKELIDDIERLKYEIAEVMTEIDNLTSVEESKTTQRNKQIAMGRKKFNMDPKKGIQFLIENDLLQSSPEDVAQFLYKGEGLNKTVIGDYLGERDDFNIKVLQAFVELHEFADLNLVQALRQFLWSFRLPGEAQKIDRMMEAFASRYCLCNPGVFQSTDTCYVLSFAIIMLNTSLHNHNVRDKPTAERFITMNRGINEGGDLPEELLRNLYESIKNEPFKIPEDDGNDLTHTFFNPDREGWLLKLGGRVKTWKRRWFILTDNCLYYFEYTTDKEPRGIIPLENLSIREVEDPRKPNCFELYNPSHKGQVIKACKTEADGRVVEGNHVVYRISAPSPEEKEEWMKSIKASISRDPFYDMLATRKRRIANKK
notes: Incubated with a 1.2 molar excess of inositol 1,3,4,5-tetrakisphosphate (IP4) before SEC-SAXS and NS-EM; source: E. coli BL21(DE3), purified (Ni-NTA, HiTrap Q, Superdex-200)
B3: Full-length ARNO carrying a 3G sequence in the membrane-binding site (ARNOFL) (natural protein, human, UniProt Q99418 1-400, looked up)
chain: MEDGVYEPPDLTPEERMELENIRRRKQELLVEIQRLREELSEAMSEVEGLEANEGSKTLQRNRKMAMGRKKFNMDPKKGIQFLVENELLQNTPEEIARFLYKGEGLNKTAIGDYLGEREELNLAVLHAFVDLHEFTDLNLVQALRQFLWSFRLPGEAQKIDRMMEAFAQRYCLCNPGVFQSTDTCYVLSFAVIMLNTSLHNPNVRDKPGLERFVAMNRGINEGGDLPEELLRNLYDSIRNEPFKIPEDDGNDLTHTFFNPDREGWLLKLGGGRVKTWKRRWFILTDNCLYYFEYTTDKEPRGIIPLENLSIREVDDPRKPNCFELYIPNNKGQLIKACKTEADGRVVEGNHMVYRISAPTQEEKDEWIKSIQAAVSVDPFYEMLAARKKRISVKKKQEQP
notes: Cloned in pET-8c (Antonny et al., 1997); also called Cytohesin-2; source: E. coli, purified (Ni-NTA HisTrap FF, Superdex 200)

Assays:
[1] = target: the molecule itself; experiment: SEC-SAXS; BioCAT 18-ID (APS); samples with 1.2 molar excess of IP4, concentrated to 10-20 mg/ml, Superdex-200 Increase; 20 mM Tris pH 8.0, 150 mM NaCl, 2 mM MgCl2, 0.1% 2-mercaptoethanol, 5% glycerol, 1 μM IP4; peak concentration ∼80 μM (Grp1 14-399), ∼1 mg/mL (Grp1 14-390)
[2] = target: the molecule itself; experiment: SEC-SAXS; ARNOFL, no phosphoinositide head group; BM29 beamline (ESRF), Bio Sec300 HPLC column, 600 μg in 60 μL injected

Protein | stoichiometry N [1] | stoichiometry N [2]
B1 | 2 | –
B2 | 2 | –
B3 | – | 2

— paper PMC6948192, “Structural Organization and Dynamics of Homodimeric Cytohesin Family Arf GTPase Exchange Factors in Solution and on Membranes” (Structure(London, England:1993), 2019)
